Results: the supplement of paper PMC10724198
± gives the standard deviation of the averaged measurements.
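Also: PSI is a weighted mean of sequencing reads over stability bins, variants kept only with over 10 reads, mCherry proximal and sfGFP distal, peptide attached via GGGS linker.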

What follows are sequences tested on Saccharomyces cerevisiae (assay: protein stability index of tFT-peptide fusion (C-terminal peptide) (PSI (0-1 scale)); higher = more stable (slower turnover)). Conditions: genetic background: wild type; temperature: 30 C.
PFFPSSFALLRS was tested, and the protein stability index was 0.7166 ± 0.0067.
NHSTGLYAARLR was tested, and the protein stability index was 0.725 ± 0.041.
Work on NIPAAGCPRATA yielded a protein stability index of 0.711 ± 0.033.
KKNAHANKIGND was tested, and the protein stability index was 0.639 ± 0.086.
FTFARPVCLFFG was tested, and the protein stability index was 0.587 ± 0.003.
Sequence STLVHSDESQLA has a protein stability index of 0.633 ± 0.092.
In the case of VWLGTCLPRRAV, the protein stability index is reported as 0.725 ± 0.13.
Work on SLSHPSPPRTLP yielded a protein stability index of 0.697 ± 0.007.
Sequence LPFTLLPPVLSL has a protein stability index of 0.596 ± 0.0062.
PPPPRPLPSSNG gave a protein stability index of 0.76 ± 0.049.
LGRGEVWYIDRG was tested, and the protein stability index was 0.696 ± 0.017.
In the case of TRTGSTPRGSTR, the protein stability index is reported as 0.684 ± 0.069.
For TLPPPPLSTPTL, the protein stability index was 0.643 ± 0.1.
VEPTSDNGVVRR was tested, and the protein stability index was 0.662 ± 0.025.
With LSPLIHSPRPFA the protein stability index was 0.752 ± 0.061.
With PLLVLSLRLSPP the protein stability index was 0.664 ± 0.013.
Work on GFDFLHHIVASS yielded a protein stability index of 0.728 ± 0.017.
Sequence CRRLSICPILFL has a protein stability index of 0.607 ± 0.0062.
For AREGSRGVDVGV, the protein stability index was 0.629 ± 0.01.
Work on RGRSVEGSRGGW yielded a protein stability index of 0.6781 ± 0.0048.
In the case of ASSDLQDSPIGD, the protein stability index is reported as 0.665 ± 0.019.
ARPAPPDNVHRN showed a protein stability index of 0.626 ± 0.069.
For GFSLLGPFAFWV, the protein stability index was 0.688 ± 0.066.
For PPPSPLPSPPPP, the protein stability index was 0.5916 ± 0.0031.
RKKEKKQKKKKG gave a protein stability index of 0.688 ± 0.043.
In the case of LVRLNSHRYTSV, the protein stability index is reported as 0.613 ± 0.035.
With KKKKKKKTKKKK the protein stability index was 0.78 ± 0.034.
LFPPPPSPLGHS showed a protein stability index of 0.75227 ± 0.00052.
GNNREGYRSAQA gave a protein stability index of 0.599 ± 0.054.
GAGGGGNLGWLR was tested, and the protein stability index was 0.6788 ± 0.0063.
Work on PRPGQPFSRFRF yielded a protein stability index of 0.6724 ± 0.0054.
In the case of PPSPDATPLSHI, the protein stability index is reported as 0.678 ± 0.035.
Work on DASELLGRPVVL yielded a protein stability index of 0.748 ± 0.012.
KADVSIRYGINN showed a protein stability index of 0.714 ± 0.074.
Work on FPPPPPPLPPGS yielded a protein stability index of 0.687 ± 0.073.
Work on EVDGISTRAAVC yielded a protein stability index of 0.63 ± 0.083.
Sequence PPLPHPPLLAPP has a protein stability index of 0.748 ± 0.15.
Work on QGGSHARDRRRL yielded a protein stability index of 0.678 ± 0.013.
Sequence LPRRSSRRQYAA has a protein stability index of 0.751 ± 0.022.
PGAHPVTLTIRL showed a protein stability index of 0.647 ± 0.027.
For DQESTRLRWGTS, the protein stability index was 0.66 ± 0.041.
SSDLTKKCNRLR showed a protein stability index of 0.673 ± 0.023.
TEYHIVTLPRRC gave a protein stability index of 0.625 ± 0.076.
For WGWGVLRRRVGA, the protein stability index was 0.76 ± 0.082.
Sequence KDRVGYKEIITG has a protein stability index of 0.695 ± 0.028.
QSHNDIRDGPPR was tested, and the protein stability index was 0.679 ± 0.021.
IKNKDLISVIII gave a protein stability index of 0.646 ± 0.042.
GTCQALARRTGD gave a protein stability index of 0.686 ± 0.061.
For VVSWLGAGYSVR, the protein stability index was 0.7 ± 0.071.
With LGVLGGGRRFGV the protein stability index was 0.715 ± 0.019.
For PLRPPRPPPPPF, the protein stability index was 0.726 ± 0.052.
ILVGKIEGIVQE gave a protein stability index of 0.662 ± 0.025.
With PPAPPPPTGLCL the protein stability index was 0.755 ± 0.092.
With RCGVGGAVSFWW the protein stability index was 0.72 ± 0.05.
Sequence PPAPPLPAPPWA has a protein stability index of 0.54 ± 0.032.
Sequence PLCLLLLNPPTL has a protein stability index of 0.682 ± 0.012.
Work on GGRDVGEMVDLQ yielded a protein stability index of 0.758 ± 0.14.
ILSMSQPHPILS gave a protein stability index of 0.6175 ± 0.0042.
In the case of RRKNIQEKKIKK, the protein stability index is reported as 0.725 ± 0.016.
Work on SVLVTASSFLYF yielded a protein stability index of 0.649 ± 0.027.
LRAWPILPSRVL showed a protein stability index of 0.641 ± 0.014.
PPLVPPTPAFPP showed a protein stability index of 0.623 ± 0.028.
Sequence GTLLRINLMTIQ has a protein stability index of 0.663 ± 0.02.
Work on SNLYNNQEQDHT yielded a protein stability index of 0.723 ± 0.058.
LLRVMRAVFSGL showed a protein stability index of 0.623 ± 0.015.
Sequence SPLFLPPPVPPP has a protein stability index of 0.599 ± 0.039.
With DCKTCVVGCELF the protein stability index was 0.697 ± 0.043.
Work on SDSPSAPPSAYH yielded a protein stability index of 0.62 ± 0.058.
With SVLAIASVIGCL the protein stability index was 0.598 ± 0.032.
With HPPPLVPSPSTQ the protein stability index was 0.749 ± 0.067.
Sequence PPTIHPSPAAPH has a protein stability index of 0.623 ± 0.062.
With YEASSIPAWRYV the protein stability index was 0.529 ± 0.034.
For LGIGTWGHRGDD, the protein stability index was 0.712 ± 0.015.
DAPSPPLTGVSR gave a protein stability index of 0.645 ± 0.01.
GQVGDRVVSVGL gave a protein stability index of 0.694 ± 0.028.
For PRPGSRCPIKGR, the protein stability index was 0.692 ± 0.024.
GGGLGGAGFRGG was tested, and the protein stability index was 0.661 ± 0.051.
TPPAEGTSQTKL was tested, and the protein stability index was 0.659 ± 0.054.
QQLWQTHEHQAR gave a protein stability index of 0.674 ± 0.035.
Sequence LCLGVLRSDCVV has a protein stability index of 0.675 ± 0.011.
For PLVPSPSPPPAR, the protein stability index was 0.727 ± 0.031.
For FRGSVRLIGFAQ, the protein stability index was 0.666 ± 0.0081.
With CWCGLGVWAFGV the protein stability index was 0.715 ± 0.039.
SHIPRNLSPFSS was tested, and the protein stability index was 0.754 ± 0.056.
In the case of KMKRSNADAVEP, the protein stability index is reported as 0.678 ± 0.03.
With ELTKNRQTVIIS the protein stability index was 0.635 ± 0.035.
Sequence VRATNLSSVGIF has a protein stability index of 0.619 ± 0.011.
For PFSLTTLFSPLL, the protein stability index was 0.691 ± 0.031.
EGKRGKTGVRRI was tested, and the protein stability index was 0.743 ± 0.055.
For GKRGGTGAGEKR, the protein stability index was 0.66 ± 0.071.
Sequence AGTGAHGLREPR has a protein stability index of 0.706 ± 0.15.
With PLPQVLYPPPPS the protein stability index was 0.6905 ± 0.0045.
Sequence QKPKDYTEDKRD has a protein stability index of 0.718 ± 0.11.
TTYKRRTSKTLS gave a protein stability index of 0.679 ± 0.024.
RLLSPPPPPPPV showed a protein stability index of 0.701 ± 0.071.
Sequence TRRHKPNSGTRP has a protein stability index of 0.69465 ± 7.1e-06.
VVGVLRVRSGEN was tested, and the protein stability index was 0.606 ± 0.03.
Sequence RKLNEKTRYKRR has a protein stability index of 0.7788 ± 0.003.
Sequence LPSPRPSPSRVP has a protein stability index of 0.676 ± 0.038.
SFPPPLPPSPTP gave a protein stability index of 0.697 ± 0.036.
TYTPQVSSVFPI gave a protein stability index of 0.698 ± 0.018.
